Results on one substance are retold here after patent US20230257791A1.

The target of this experiment is recombinant gp140 from the clade C strain 92BR025 (HIV antigen), Sino Biological, Inc. (HIV, clade C strain 92BR025). The experiment can be described thus: SPR, Biacore T200; gp140 immobilized, GRFT as analyte at 12.5-400 nM; heterogeneous ligand model; mean ± SD of replicates.
recombinant gp140 from the clade C strain 92BR025 (HIV antigen), Sino Biological, Inc. (HIV, clade C strain 92BR025), sequence (O12164 32-677): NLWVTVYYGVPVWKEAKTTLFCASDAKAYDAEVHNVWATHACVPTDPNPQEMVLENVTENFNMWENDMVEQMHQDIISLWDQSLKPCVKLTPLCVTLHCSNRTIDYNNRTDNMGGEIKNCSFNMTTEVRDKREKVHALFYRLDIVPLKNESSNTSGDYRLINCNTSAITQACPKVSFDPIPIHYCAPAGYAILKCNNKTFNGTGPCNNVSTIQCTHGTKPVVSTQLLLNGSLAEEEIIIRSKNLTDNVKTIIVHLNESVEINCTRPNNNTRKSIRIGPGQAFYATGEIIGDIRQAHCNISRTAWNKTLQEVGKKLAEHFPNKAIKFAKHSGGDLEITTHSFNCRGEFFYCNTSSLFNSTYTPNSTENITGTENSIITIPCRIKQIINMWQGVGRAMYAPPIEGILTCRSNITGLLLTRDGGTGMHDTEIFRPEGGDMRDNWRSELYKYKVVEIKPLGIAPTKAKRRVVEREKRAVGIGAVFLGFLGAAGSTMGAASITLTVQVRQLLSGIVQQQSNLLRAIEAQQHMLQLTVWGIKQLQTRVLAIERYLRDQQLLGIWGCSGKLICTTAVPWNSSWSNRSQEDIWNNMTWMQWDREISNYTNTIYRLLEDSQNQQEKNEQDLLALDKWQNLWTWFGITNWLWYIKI

For the substance “precipitation-purified Griffithsin (GRFT), recombinant, expressed in E. coli strain DLF_0025 from plasmid pHC-Kan-phoAp-GRFT (from UniProt P84801 1-121)”, the Kd stood at 4.4 nM.
